The target of one test is T1, Ctr9^(1–313) (S. cerevisiae, UniProt P89105 1-313).
T1 construct: In the crystal it stood as part of the single-chain fusion m36; source: E. coli BL21(DE3) Codon Plus, co-expressed with a Paf1 fragment, purified (Ni-NTA, SEC)
T1 sequence (looked up): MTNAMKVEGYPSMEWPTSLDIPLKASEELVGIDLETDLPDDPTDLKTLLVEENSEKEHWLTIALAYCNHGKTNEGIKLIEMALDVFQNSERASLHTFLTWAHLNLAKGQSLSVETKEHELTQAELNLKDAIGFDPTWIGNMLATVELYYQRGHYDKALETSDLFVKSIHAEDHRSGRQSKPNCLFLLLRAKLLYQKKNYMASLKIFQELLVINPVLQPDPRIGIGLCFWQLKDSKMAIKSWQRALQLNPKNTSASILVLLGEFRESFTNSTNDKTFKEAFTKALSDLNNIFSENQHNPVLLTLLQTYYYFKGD
Put plainly: SEC; two fragments co-expressed in E. coli and co-purified; analytical size-exclusion column with SDS-PAGE of the fractions. Particulars: both partners purified.

For a further test, the target named is T2, Ctr9^(1–270) (S. cerevisiae, UniProt P89105 1-270).
T2 construct: S. cerevisiae Ctr9, residues 1-270
T2 sequence (looked up): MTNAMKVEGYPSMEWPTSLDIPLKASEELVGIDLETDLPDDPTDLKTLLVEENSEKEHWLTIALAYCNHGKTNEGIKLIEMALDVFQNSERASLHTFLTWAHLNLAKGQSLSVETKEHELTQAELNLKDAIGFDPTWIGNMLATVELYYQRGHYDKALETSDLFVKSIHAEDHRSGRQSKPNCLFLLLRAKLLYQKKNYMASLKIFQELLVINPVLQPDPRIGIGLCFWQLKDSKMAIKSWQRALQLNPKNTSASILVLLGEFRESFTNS
Nature of the test: AUC; sedimentation velocity, 42,000 rpm, 4 °C, interference detection; 20 mM HEPES pH 7.5, 150 mM NaCl, 1 mM EDTA, 1 mM DTT. The following applies: both partners purified.

Two molecules from PMC6143631 (Nature Communications, 2018) can be followed below.

Take DEDLGMPVDLMKFPGLLNKLDSKLLYGFDNVKLDKDDRILLRDPR (domain or fragment, S. cerevisiae, UniProt P38351 59-103, looked up) [Paf1^(59–103)]: in the test with Ctr9^(1–313), the binding result is given as “binds”.

B1: Paf1^(34–103) (domain or fragment, S. cerevisiae, UniProt P38351 34-103, looked up)
chain: ETNADSSQLINSLYIKTNVTNLIQQDEDLGMPVDLMKFPGLLNKLDSKLLYGFDNVKLDKDDRILLRDPR
notes: In the crystal it stood as part of the single-chain fusion m36; source: E. coli BL21(DE3) Codon Plus, co-expressed with a Ctr9 fragment, purified (Ni-NTA, SEC)
As to B1, in the test with Ctr9^(1–270), the “stoichiometry N” value turned out to be 1.
